According to patent US20260227403A1:

Key:
[1] = biological target: peptides with further truncation from the N-terminus and C-terminus (beyond P40 and P38); assay: ELISA, 1 µg truncated peptide per well, 20 ng/mL mAb
[2] = biological target: peptide P40 and peptide P38; assay: as above

B1: ETV1 rabbit monoclonal antibody (29E4) (antibody, V domains shown)
VH: QELEESGGDLVKPGASLTLTCTASGFFFSAENHICWVRQAPGKGLEWIGCVYIGSYVGGSGDPYYASWAKGRFTISKTSSTTVTLQMSSLTAADTATYFCARDLGSLWGPGTLVTVSS
VL: DVVMTQTASSVSAAVGGTVTIACQSSQSVYDNNNLAWFQQKPGQPPKRLIYSASTLASGVSSRFKGSGYGTQFTLTISDVQCDDAATYYCVGAFSGYIFVFGGGTEVVVK
Question: B1 was tested. Which binding efficiency in comparison to the full-length immunogenic peptide P1 (%) [1] did it give?
Answer: Its binding efficiency in comparison to the full-length immunogenic peptide P1 (%) is 75%.

Question: And the binding efficiency in comparison to the full-length immunogenic peptide P1 (%) [2]?
Answer: The binding efficiency in comparison to the full-length immunogenic peptide P1 (%) was 80 to 100%.
